In PMC2726291, “Sus1, Cdc31, and the Sac3 CID Region Form a Conserved Interaction Platform that Promotes Nuclear Pore Association and mRNA Export” (Molecular Cell, 2009):

T1: Sac3 residues 723–805 (Sac3^CID) (yeast, UniProt P46674 723-805)
T1 construct: Vector pGEXTEV; also called CID domain; not shown: GST, N-terminal, cleaved
T1 sequence (looked up): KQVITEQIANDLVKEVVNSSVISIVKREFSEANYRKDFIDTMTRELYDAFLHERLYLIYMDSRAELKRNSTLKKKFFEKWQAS

T2: 6XHis-ENY2 (human, UniProt Q9NPA8 1-101)
T2 construct: ENY2, human homolog of Sus1; cDNA cloned into the NdeI and SalI sites of pET28a; also called human Sus1 homolog; DC6/ENY2; source: E. coli BL21, purified (Ni-NTA Agarose)
T2 sequence (looked up): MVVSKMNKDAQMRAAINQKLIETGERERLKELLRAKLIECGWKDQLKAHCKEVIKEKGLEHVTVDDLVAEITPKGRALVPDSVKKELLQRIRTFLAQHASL

T3: Sus1 (of the in vitro binding studies of Figure S6) (yeast, UniProt Q6WNK7 1-96)
T3 construct: Sus1, yeast
T3 sequence (looked up): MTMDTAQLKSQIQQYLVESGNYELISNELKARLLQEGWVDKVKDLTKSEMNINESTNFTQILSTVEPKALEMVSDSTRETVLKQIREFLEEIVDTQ

B1: Sus1 (recombinant, untagged, full length) (natural protein, yeast, UniProt Q6WNK7 1-96, looked up)
chain: T3 sequence (looked up)
notes: Sus1, yeast, full length; the model holds residues 6–95; also called Sus1A; Sus1B; source: E. coli BL21(DE3) CodonPlus RIL, untagged vector pOPT, purified as a complex with Sac3 fragment and Cdc31
B2: GST-Sac3(723–752) (domain or fragment, yeast, UniProt P46674 723-752, looked up)
chain: KQVITEQIANDLVKEVVNSSVISIVKREFS
notes: Vector pGEXTEV; source: E. coli, immobilised on glutathione Sepharose 4B resin from clarified lysate; not shown: GST, N-terminal, kept
B3: GST-Sac3(758–805) (domain or fragment, yeast, UniProt P46674 758-805, looked up)
chain: KDFIDTMTRELYDAFLHERLYLIYMDSRAELKRNSTLKKKFFEKWQAS
notes: Vector pGEXTEV; The methods say that GST-Sac3 fragments were coexpressed with Cdc31; source: E. coli, immobilised on glutathione Sepharose 4B resin from clarified lysate; not shown: GST, N-terminal, kept
B4: GST-GANP(1162–1204) (domain or fragment, human, UniProt O60318 1162-1204, looked up)
chain: ELVLSELSQGLAVELMERVMMEFVRETCSQELKNAVETDQRVR
notes: Vector pGEXTEV; not shown: GST, N-terminal, kept
B5: Sac3 residues 753–805 (domain or fragment, yeast, UniProt P46674 753-805, looked up)
chain: EANYRKDFIDTMTRELYDAFLHERLYLIYMDSRAELKRNSTLKKKFFEKWQAS
notes: Vector pGEXTEV; not shown: GST, N-terminal, cleaved
B6: Cdc31 (recombinant, untagged, full length) (natural protein, yeast, UniProt P06704 1-161, looked up)
chain: MSKNRSSLQSGPLNSELLEEQKQEIYEAFSLFDMNNDGFLDYHELKVAMKALGFELPKREILDLIDEYDSEGRHLMKYDDFYIVMGEKILKRDPLDEIKRAFQLFDDDHTGKISIKNLRRVAKELGETLTDEELRAMIEEFDLDGDGEINENEFIAICTDS
notes: Cdc31, yeast, full length, cloned into pET30a and called untagged; the model holds residues 9–161; source: E. coli BL21(DE3) CodonPlus RIL, coexpressed with GST-Sac3 fragments, purified as a complex
B7: GST-GANP(1162–1240) (domain or fragment, human, UniProt O60318 1162-1240, looked up)
chain: ELVLSELSQGLAVELMERVMMEFVRETCSQELKNAVETDQRVRVARCCEDVCAHLVDLFLVEEIFQTAKETLQELQCFC
notes: as for B4
B8: Sac3 (construct of the in vitro binding studies of Figure S6) (domain or fragment)
chain: T1 sequence (looked up)
modifications: Supplement text on Sus1 affinity (Figure S6): plates coated with GST-Sac3(723-805) co-complexed with full-length Cdc31; GST and the Cdc31 partner chain (P06704) omitted here

Key:
[1] = target: T1, Sac3 residues 723–805 (Sac3^CID); assay: crystal structure; Sac3 fragment:Cdc31:Sus1 complexes, hanging drop vapor diffusion in PEG solutions at 19°C; 2.5 Å (Sac3 753–805) and 2.7 Å (Sac3 723–805); conditions: both partners purified
6XHis-ENY2 = target: T2, 6XHis-ENY2; assay: pull-down; GST or GST fusions immobilised on glutathione Sepharose 4B; purified ENY2 added in 10-fold excess, washed extensively with NB buffer (150 mM NaCl, 50 mM KOAc, 20 mM Tris, 2 mM Mg(OAc)2, 0.1% NP-40); SDS-PAGE (Figure S4); conditions: both partners purified
[2] = target: B6; assay: crystal structure; Sac3 fragment:Cdc31:Sus1 complexes, hanging drop vapor diffusion in PEG solutions at 19°C; 2.5 Å (Sac3 753–805) and 2.7 Å (Sac3 723–805); conditions: both partners purified
[3] = target: B1; assay: as above; conditions: both partners purified
[4] = target: T3, Sus1 (of the in vitro binding studies …); assay: not stated; in vitro binding studies (Figure S6)

Binder: B1
stoichiometry N [1]: 2

Binder: B2
binding result (6XHis-ENY2): binds

Binder: B3
binding result (6XHis-ENY2): binds

Binder: B4
binding result (6XHis-ENY2): binds

Binder: B5
binding result [2]: binds
binding result [3]: binds

Binder: B6
stoichiometry N [1]: 1

Binder: B7
binding result (6XHis-ENY2): binds

Binder: B8
Kd [4]: ~10 nM
